Measurements published in article doi:10.1101/2025.05.14.653996.

Biological target: actin filament, unlabelled segment of recombinant cytoplasmic β-actin (UniProt P60709)
Experiment: TIRF microscopy of single actin filaments under flow in a microfluidic chamber

cluster detachment, fold faster at 50 mM KCl than at 100 mM KCl | fold decrease of the median detachment time from 0.01 to 0.04 pN per Tpm dimer | cluster detachment, fold slower than sfGFP-Tpm1.6 | Substance
36 fold | > 100 fold | – | sfGFP-Tpm1.6 (natural protein)
– | – | 5.5 fold | sfGFP-Tpm1.7 (natural protein)
